Target: T1, SNF4-pACTII (unrelated fusion with Gal4 activation domain) (yeast, UniProt P12904)
T1 sequence: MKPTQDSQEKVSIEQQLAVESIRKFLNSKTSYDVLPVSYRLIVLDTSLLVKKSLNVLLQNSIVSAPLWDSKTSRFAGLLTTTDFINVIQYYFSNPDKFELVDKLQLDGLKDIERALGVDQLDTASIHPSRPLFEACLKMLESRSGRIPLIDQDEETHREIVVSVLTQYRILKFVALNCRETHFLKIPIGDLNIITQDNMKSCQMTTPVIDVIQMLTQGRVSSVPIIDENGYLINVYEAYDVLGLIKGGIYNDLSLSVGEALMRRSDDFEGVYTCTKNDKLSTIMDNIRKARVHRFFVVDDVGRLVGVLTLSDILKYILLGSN
Assay: yeast two-hybrid, HIS3 reporter, strain YCB5.1
Experimental: Figure 1: FIG. 1: Investigation of the MORT1 transcript isoforms with MACHα1 C360S in a yeast two-hybrid system: Activation of the HIS3 reporter gene. Each MORT1 transcript isoforms was expressed as a fusion protein with Gal4 DNA binding domain. MACHα1 C360S was expressed as a fusion protein with the Gal4 activation domain. Yeast strains were plated at a cell density of 5 ×10^1, 5 ×10^2, 5 ×10^3, 5 ×10^4 and 5 ×10^5 (left to right within a plate. Sibling isolates from yeast strains expressing a MORT1 transcript isoform with MACHα1 C360S fusion proteins were plated on histidine deficient media containing 0, 20 or 40 mM 3-aminotriazole (3-AT). The top row of plates (1) contained yeast strains that express two fusion proteins as follows: YCB5: MORT1-pAS1/MACHα1 C360S-pACTII; YCB9: MORT1Δ21-pAS1/MACHα1 C360S-pACTII; YCB16: MORT1 G173A-pAS1/MACHα1 C360S-pACTII. The bottom row of plates (3) contains negative control strains which express only the MORT1 transcript isoform fusion protein with a recombinant vector containing nonrelated heterologous DNA, as follows: YCB5.1: MORT1-pAS1/SNF4-pACTII; YCB9.1: […]. […] Each MORT1 transcript isoforms was expressed as a fusion protein with Gal4 DNA binding domain. MACHα1 C360S was expressed as a fusion protein with the Gal4 activation domain. […]

binding result: no binding
B1: MORT1 fusion protein with Gal4 DNA binding domain (MORT1-pAS1) (other)
chain: MDPFLVLLHSVSSSLSSSELTELKFLCLGRVGKRKLERVQSGLDLFSMLLEQNDLEPGHTELLRELLASLRRHDLLRRVDDFEAGAAAGAAPGEEDLCAAFNVICDNVGKDWRRLARQLKVSDTKIDSIEDRYPRNLTERVRESLRIWKNTEKENATVAHLVGALRSCQMNLVADLVQEVQQARDLQNRSGAMSPMSWNSDASTSEAS
